Data published in the DeepSol protein solubility set.

test: soluble on expression in E. coli; label from the status in PepcDB or PDB records

Sequence | soluble on expression in E. coli
MGSDKIHHHHHHMQQVISDIMTFRGSHFELGVKTGKWLQQTPLLKNREKEWKKRVPRFDIDVNETYQIFQTYAPQIWEELMGLQSILKMPTRQIILNFGHYRFTDLKESGCTVFQGKDFMVRNYDYHPATYDGRYLLYQPTDSGLAQIGPVSRVTGRMDGMNESGLTMGYNFMHRKKPANGFVCYMIGRLILENCRNVTEAIQLLKEIPHRSSFSYILMDKSLNHAIVEVTPRSIDVRYDNICTNHFEILTHENRNYTKESKERLARTISQTNDNLDMTTAFKLFNNPQYEIYSKLFKSWSGTIHTSMYQPETLTAYFTLGENAPPEIIDFKSWLDGQDLNITHFTGNIDTDLTFANK | not soluble
MLKTLAVANYRSINKLVIPLGRLNLVTGANGSGKSNLYRALRLLAETAQGGVVNALAKEGGLESTYWAGPEQISRRMSQGEVPIQGGPRKAARRLQLGFAGEDFGYAISLGLPDSSGHFMLPGHSSPIASRFTLDPWIKRESIWGGPLYRSASALVDRQGPMIRARAGRQWEVLAQHTSSGDSLFDRVGNLSSSPEVLHLREQIRGWRFYDHLRTDSQAPARRPQLGTRTPVLHHDGRDLAAALQTIIEVGDQQALHETISDAFPESRLEIDAVPGGLFGVQFYQEGLLRPLSAAELSDGTLRYLLLVAALLTPRPPTLMVLNEPETSLHPDLLPALARLIIRASQQCQVWVVSHARRLIAALQQDPECNCIVLEKQLGQTGIVGQRMLDEPAWNWPDLEHHHHHH | not soluble
MKASFKGKFDVDKSGSVASLTFNAGNAKLRATMTDASFVAGPSFNGLSLAVEKPGFFIIDYNVPKKDVRFQFMNTIRIAEKPLNLTYIHMRGDNRTIVDGSFVIDPANKLSANYMVGTKNCKLKYTYVHGGIATFEPCYDVAKNMWDFAISHKLYGGDNLKATYQTSSKMLGLEWSNNSKSTGSFKVCASMNLAEELKPPKLTAETTWNLEL | soluble
MGNQAGSKTKLVIIQGPTASGKSELAVRLAEACGGDVVNADSMQVYRGMDIGTAKPSPELVARVPHHLYDIVDPDVNFTAADYRREAGRVITEIHSRGKRPILVGGTGLYIKTLIGGLAPSPGADDTIRAELEEDARSEGAAALHDRLAQVDPAAAARLHPNDRVRIVRALEVFLMTGKPLSEFQEEHRFADEPYDCLKLGISVERDDLYRRINERVNRMFAEGFVEEVSGLLNAGYSPDLKAMGAIGYKEVCAYLAGTCSLDEARELVQRNTRRYAKRQLTWFRKDPAIKWVEYPANFDSISTIAMKFFGLEHHHHHH | not soluble
MSLSCPRCGWVHYINPLPVAIALTVNRNNELLMIRRAHEPAFNEWALPGGFLEAGERPEEGCLRELFEETSLEGTIDKLIGVWHLESGLYGSLIAVAYRVIAAHERISINHEVFEAGFYRPDNMPPVRIPLHRQIIAESRWPERDLSLTEGHHHHHH | not soluble
SSSSSSPAIEPDTPDLICQLDNVQGMVDALTCVRWKRHQDALVELSEHGIVLIVEESGCLQAKVYLQRELFTKYEYGAQGRPRFGISLGLLVDCLNTFSSPGHSNTIEIKYPGPDMELLLKSVDTLNSCIYSEIRTRIPETVTWDYNFEQAGIAPLTFTVKSAALKEAIDDLEWPGSSVQISLQKEPPCVIFRGEGHGDLQIDFMYYANTDLLLAFHCDTEVSYGYKYKFLKATTANIPGNVVRENRRSKLTIGRGGMLKVQHLVSVSKALAPQVESAGYQPPSRIAYIEFFVKPEEPAD | soluble
AMAKGVGVSNEKLDAVMRVVSEESGIALEELTDDSNFADMGIDSLSSMVIGSRFREDLGLDLGPEFSLFIDCTTVRALKDFMLGSGDAG | soluble
MQSTPKPFDIEQPSLRVFLPAPELATGRAVVACPGGGYSGLAVNHEGYDWAPYFNKQGIALIVLKYRMPKGDRTLPISDAEAAMKMVRDSADVWNLNPNDIGIMGSSAGGHLASTIATHAPEALRPNFQILFYPVITMDKSFTHMGSHDNLLGKDASADLEKEFSNEKQVTKETPRAFIVYSDDDKVVPPANGVNYYLALNKKGVPSVLHIYPTGGHGWGIREDFLEHHHHHH | not soluble
MSNKLDGINKMITAKHKQMDDLYDEKREVKALIDESDELNHSIEQLYQHLGDRYHSSNMASRMEQFRDEFHFAKRRSTEALYEQQQQIQHGIRKAEEEMIDLEMRRNVEIETVTKEENKWKQLEHHHHHH | soluble
MGSDKIHHHHHHVFIGIETTDPEGLKETGKVQNLREDPLTAVRRIYAHGIDVLGGFIIGFDHDTMATFEHQYRFITDAGIQSAMIGLLMALPRTPLHERMQREGRLLPLDGHADNTCLTTNIAPRSMNIDAMVAAYQELYRRLLTGPEIGRRIRNKMKYLQAPVYGSGYSMGQRAGILARLMVRGIGAGGLSTLVAFLRSFPFLTPSRIPMVISDWIIGLSMKAFAETSLLGRSTQGLNNAATGISTGLRDP | not soluble
VTMKEASAREIDEVVITGTGAQKKLTVTGAITNVDVDVLKANPSGSMANALAGNVPGILAMQTSGKPGSVSEFWIRGISTFGASNSALVLVDGFERSLDEINVEDVESFSVLKDASATAIYGSKGANGVVLITTKHGKAGK | not soluble
MGSDKIHHHHHHMSEKKILILCQYFYPEYVSSATLPTQLAEDLIANHINVDVMCGWPYEYSNHKQVSKTEMHRGIRIRRLKYSRFNNKSKVGRIINFFSLFSKFVINIPKMLKYDQILVYSNPPILPLIPDVLHRLLKKKYSFVVYDIAPDNAIKTGATRPGSMIDKLMRYINRHVYKNAENVIVLGTEMKNYLLNHQISKNADNIHVIPNWYDMRQLQDNRIYNDTFKAYREQYDKILLYSGNMGQLQDMETLISFLKLNKDQPQTLTILCGHGKKFADVKTAIEDHRIENVKMFEFLTGTDYADVLKIADVCIASLIKEGVGLGVPSKNYGYLAAKKPLVLIMDKQSDIVQHVEQYDAGIQIDNGDAHAIYNFINTHSSKELHEMGERAHQLFKDKYTREINTMKYYNLLK | not soluble
MPKLVTWMNNQRVGELTKLANGAHTFKYAPEWLASRYARPLSLSLPLQRGNITSDAVFNFFDNLLPDSPIVRDRIVKRYHAKSRQPFDLLSEIGRDSVGAVTLIPEDETVTHPIMAWEKLTEARLEEVLTAYKADIPLGMIREENDFRISVAGAQEKTALLRIGNDWCIPKGITPTTHIIKLPIGEIRQPNATLDLSQSVDNEYYCLLLAKELGLNVPDAEIIKAGNVRALAVERFDRRWNAERTVLLRLPQEDMCQTFGLPSSVKYESDGGPGIARIMAFLMGSSEALKDRYDFMKFQVFQWLIGATDGHAKNFSVFIQAGGSYRLTPFYDIISAFPVLGGTGIHISDLKLAMGLNASKGKKTAIDKIYPRHFLATAKVLRFPEVQMHEILSDFARMIPAALDNVKTSLPTDFPENVVTAVESNVLRLHGRLSREYGSKLEHHHHHH | soluble
MGSDKIHHHHHHMMKSIILIVLDGLGDRPGSDLQNRTPLQAAFRPNLNWLASHGINGIMHPISPGIRCGSDTSHMSLLGYDPKVYYPGRGPFEALGLGMDIRPGDLAFRANFATNRDGVIVDRRAGRENKGNEELADAISLDMGEYSFRVKSGVEHRAALVVSGPDLSDMIGDSDPHREGLPPEKIRPTDPSGDRTAEVMNAYLEEARRILSDHRVNKERVKNGRLPGNELLVRSAGKVPAIPSFTEKNRMKGACVVGSPWLKGLCRLLRMDVFDVPGATGTVGSNYRGKIEKAVDLTSSHDFVLVNIKATDVAGHDGNYPLKRDVIEDIDRAMEPLKSIGDHAVICVTGDHSTPCSFKDHSGDPVPIVFYTDGVMNDGVHLFDELSSASGSLRITSYNVMDILMQLAGRSDKFGS | not soluble
MRLFLLLLSLLLISITTAFALDKPDGSNSIEDQTALFFGKDDRTAVTNSRQWPWEAIGQVETASGNPCTATLISPRLVLTAGHCVLTPPGNIDQAVALRFISDKGHWKYQITDLKTRVDAKLGQKLKADGDGWIVPPAAAAYDFALIQLTNAAPIPIKPLPLWEGTANELTKALKLVNRKVTQAGYPLDNLNTLYKHEDCLVTGWAQQGVLAHQCDTLPGDSGSPLLLKNGNSWSLIAIQSSAPAAKERYLADNRALSVTAINNRLKKLVNKIADTTQ | not soluble
DSVIVVDNVPQVGPDRLEKLKNVIHKIFSKFGKITNDFYPEEDGKTKGYIFLEYASPAHAVDAVKNADGYKLDKQHTFRVN | soluble
MGSDKIHHHHHHVYTSFYGFKAKPFQLSPDPSFFFGSKGHNRAMAYLEYGLAQAEGFIVVTGEVGAGKTTLVRNLFRQLEPEKIVAAQIVNTSLDSDDTLRMVAAAFGLPLAQGNPGKTPVLVALEKFFRQCEQQGKRALLVVDEAQNLSPQTVEELRMLSNFQGDNKSLLQTFLLGQPEFRKTLLGNDMQQLRQRITATYHLGPMDRAETKSYIEHRLKTVGWGGNPGFDEEAFDAIHQYTGGIPRRINALCDRLLLMGYLEKLQHFGVSEVNEVIRDIQQEFDAVEVEAGLLSGDKTSPLKEEQFAIGLEEMSNRIAKLEETVVSLMGLLKQILSLADVNKRLR | not soluble
ADIVNLQGVTGGNTYSVPAVTMDLLSGKDVAVEEFPRKLLTFKEKLGEGQFGEVHLCEVEGMEKFKDKDFALDVSANQPVLVAVKMLRADANKNARNDFLKEIKIMSRLKDPNIIHLLAVCITDDPLCMITEYMENGDLNQFLSRHEPPNSSSSDVRTVSYTNLKFMATQIASGMKYLSSLNFVHRDLATRNCLVGKNYTIKIADFGMSRNLYSGDYYRIQGRAVLPIRWMSWESILLGKFTTASDVWAFGVTLWETFTFCQEQPYSQLSDEQVIENTGEFFRDQGRQTYLPQPAICPDSVYKLMLSCWRRDTKNRPSFQEIHLLLLQQGDE | not soluble
MKYSYVARQPILDREKRTIGYELLFRDGPKNTFPEVEPELATSRLLSDHFLSTHYNTLGNKLGFVNFPHQSLVNLVPTLFPKDSLVIEVLEDCEPTQELLDAIKHLHECGYRIALDDFVPTKAWKRFLPYVSMIKFDIRLVPIEKAAIFIQALSQFNIDFLAEKVETYEEFEQALDAGFNYFQGYFFSKPEMIQKKRLNPAFLTVIQLCKEIADKPIDFNEVERLFSIDVTLSYKLLTYVNSGYTLTTKIKSFRQALIYLGEERLRRFISLVAIASVQEDKPDSLYSLAIQRARMCEILLSQMKTKYDPGQAFLTGMFSLLGSLLDQPLSDVIEDIPVDEDIKLALTSRKGVLGYLLSMCIAYEQADWELAERYCSVLKLTETQLADAFNESTEWAQELLSQTP | not soluble
MRRKHDWLRETYRKSLEKIPERPVAHRTLSNIAPDPLYTPEDIGVLDPEYEEKRGFPGEFPYTRGVYGSMYRSKLWTMRMFAGFGTAEQTNERFKKLLKAGQTGLSVAFDLPTLMGYDSDHPLSKGEVGKCGVAVSSLADMEILFEGINLEEVTTSMTINSPANAIWAMYLAVAKKRGYDWKKLGGTIQNDILKEYIAQKEFIFPPEPSVKLVIDTFEWGPKNVPKWNFISVSGYHIREAGSTAVQELAWTLADGFEYVEAALKRGLDIDEFAPRISFFFDVHNDFFEEIAKFRAARRIWAKEMRYRYKAKNPQSWMLRTHAQTAGVSLTAQQPLNNIARVAIQALAAVLGGTNSLHTDAYDEALALPTEESATIALRTQQIIAYETGVTHTIDPLAGSYYVEWLTDEMERQAMEIIEEIRRMGGVVRAIEEGYFLRELAEASYRYQQEVERKERIIVGVNAFTDEIPLKVPIQLVDPEVERVQAERLARVRRERDPKRVEEALQGLRRAAVEGQNTMPHFVECALAYCTLGEMMDVLREVYGTYQEPAYV | soluble
KQKVINVKEVRLSPTIEEHDFNTKLRNARKFLEKGDKVKATIRFKGRAITHKEIGQRVLDRLSEACADIAVVETAPKMDGRNMFLVLAPKNDNK | soluble
MSLAGEVWLQTHHPDHPLLQTLINGGYHTFANTELQQRQAAGLPPFAHLALLRAEAKDTTSTQQFLATVRKHIPIDNAVECYGPMSAPMPRRAGYERYQLLLSSSQRNTLHRTLNVLIPAIHALPEARRVRWSLDVDPVDLYEGHHHHHH | not soluble
